Assay results reported in US20180313836A1 (Scripps Research, published 2018).

T1: human glycyl-tRNA synthetase, wild type (GlyRS^WT) (human, UniProt P41250 55-739)
T1 construct: also called WT GlyRS; GARS
T1 sequence: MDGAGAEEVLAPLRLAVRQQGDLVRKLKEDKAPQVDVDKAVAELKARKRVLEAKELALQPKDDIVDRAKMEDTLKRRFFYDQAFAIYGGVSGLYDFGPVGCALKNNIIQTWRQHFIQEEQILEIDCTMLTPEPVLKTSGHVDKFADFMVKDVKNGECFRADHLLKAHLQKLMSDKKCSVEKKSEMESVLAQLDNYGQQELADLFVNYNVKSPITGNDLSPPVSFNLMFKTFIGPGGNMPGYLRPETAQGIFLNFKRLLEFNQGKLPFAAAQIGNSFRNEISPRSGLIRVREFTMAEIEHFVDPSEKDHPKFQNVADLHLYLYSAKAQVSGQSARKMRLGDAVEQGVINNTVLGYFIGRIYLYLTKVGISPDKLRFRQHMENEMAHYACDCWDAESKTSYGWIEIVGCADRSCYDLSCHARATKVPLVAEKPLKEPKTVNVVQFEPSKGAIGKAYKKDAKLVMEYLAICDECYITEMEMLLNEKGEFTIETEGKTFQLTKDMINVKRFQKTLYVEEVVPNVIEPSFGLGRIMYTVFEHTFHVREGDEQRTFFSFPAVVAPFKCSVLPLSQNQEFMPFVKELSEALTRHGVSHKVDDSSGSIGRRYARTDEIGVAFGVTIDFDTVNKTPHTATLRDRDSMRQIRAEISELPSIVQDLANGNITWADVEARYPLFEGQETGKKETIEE

B1: b2 (on Fc) (Fc fusion)
chain: KITDYPCSGMLGMVSGLISDSQITSSNQGDRNWMPENIRLVTSRSGWALPPAPHSYINEWLQIDLGEEKIVRGIIIQGGKHRENKVFMRKFKIGYSNNGSDWKMIMDDSKRKAKSFEGNNNYDTPELRTFPALSTRFIRIYPERATHGGLGLRMELLGCEVEAPTAGPTTPNGNLVDECDDDQANCHSGTGDDFQLTGGTTVLATEKPTVIDSTIQSEF
notes: also called Nrp1 b2 domain (res. Lys425-Phe643) fused to human IgG Fc; not shown: C-terminal human IgG Fc domain (and any V5-His tag from the vector); The CD33 signal peptide is cleaved on secretion
B2: c-Fc (drawn as the c box on Fc) (Fc fusion)
chain: TAGPTTPNGNLVDECDDDQANCHSGTGDDFQLTGGTTVLATEKPTVIDSTIQSEFPTYGFNCEFGWGSHKTFCHWEHDNHVQLKWSVLTSKTGPIQDHTGDGNFIYSQADENQKGKVARLVSPVVYSQNSAHCMTFWYHMSGSHVGTLRVKLRYQKPEEYDQLVWMAIGHQGDHWKEGRVLLHKSLKLYQVIFEGEIGKGNLGGIAVDDISINNHISQEDCAKPADLDKKNPEIKIDETGSTPGYEGEGEGD
notes: also called Nrp1 c domain (res. Thr589-Asp840) fused to human IgG Fc; not shown: C-terminal human IgG Fc domain (and any V5-His tag from the vector); The CD33 signal peptide is cleaved on secretion

Target: T1, human glycyl-tRNA synthetase, wild type …
Test: in vitro IP: Fc-fused Nrp1 domain constructs on Protein A resin, recombinant GlyRS added, blot GlyRS

Binder	binding result
B1	no binding
B2	no binding
